Experimental data as given in patent publication US7893027B2, “Treatment of ocular wounds and ulcers” (The Board of Regents of the University of Oklahoma, priority 2002, dated 2011).

Experiments:
PECAM-1 (CD31) = experiment: Flow cytometry of PECAM-1 expression on HCEC; assay type: cell-based, human; details: CAP37 1 μg/ml
Procedure: Flow cytometry was used to assess the upregulation of PECAM-1 (CD31), and the integrin molecules β1 (CD29), β2 (CD18), β3 (CD61), β4 (CD104), α1 (CD49a), α2 (CD49b), α3 (CD49c), α4 (CD 49d), and αv (CD51). Human corneal epithelial cells were cultured as above and treated with CAP37 (0-2000 ng/ml) for 0-72 hr. A corresponding culture was left untreated at each time point. Following treatment with CAP37, cells were detached with 0.25% trypsin in 1 mM EDTA (pH 7.4, FISHER SCIENTIFIC, Pittsburgh, Pa.), washed twice in PBS and fixed with 0.125% paraformaldehyde (J.T. BAKER, Phillipsburg, N.J.) overnight at 4° C. The cells were washed in PBS and then incubated in 0.5% normal goat serum and 0.5% bovine serum albumin (BSA) in PBS for 30 min to block non-specific binding sites. Cells were incubated in the primary antibody (at concentrations described below) at 4° C. for 1 hr followed by the secondary antibody (FITC-goat anti-mouse IgG, PHARMINGEN, San Diego, Calif.) at 0.5 μg/10^6 cells and incubated at 4° C. for 30 min. The isotype control for these studies was FITC-labeled mouse isotype IgG1 (PHARMINGEN). The cells were analyzed by flow cytometry (FACS Calibur, BECTON DICKINSON, San Jose, Calif.). At least ten thousand cells were analyzed for each sample. […]

[1] = tested on: human corneal epithelial cells (HCEC); experiment: CyQUANT cell proliferation assay; assay type: cell-based; details: for Increase in cell numbers: 72 hr post treatment
Procedure: Human corneal epithelial cells were seeded onto 48 well tissue culture plates (7.5×10^3 cells/well, FALCON, Franklin Lakes, N.J.) and cultured as described above.
Cultures were changed to growth factor-free basic medium overnight and treated with various concentrations of CAP37 (0-2000 ng/ml) for 48-72 hrs. Recombinant human Epidermal Growth Factor (EGF 50 ng/ml, BECTON DICKINSON, Bedford, Mass.) and recombinant human Hepatocyte Growth Factor/Scatter Factor (HGF/SF 20 ng/ml, BECTON DICKINSON) were used as positive controls and growth factor-free basic medium as negative control. The medium was aspirated and new medium with CAP37 or growth factors were added to the cultures every 24 hr. The CyQUANT Cell Proliferation Assay Kit (MOLECULAR PROBES, Eugene, Oreg.) was used to quantify cell proliferation exactly according to the manufacturer's specifications. Briefly, cells were frozen, thawed, and lysed with the addition of the lysis buffer containing the green fluorescent dye, CyQUANT GR which binds to nucleic acids and the fluorescence levels read on fluorescent micro plate reader (fmax MOLECULAR DEVICES, Sunnyvale, Calif.) with filters for 485 nm excitation and 538 nm emission.

B1: CAP37: Cationic Antimicrobial Protein of Mr 37 kDa; recombinant protein from human 293 cells, identical to native PMN-derived CAP37 (SEQ ID NO:1) (protein, listed as Homo sapiens)
chain: IVGGRKARPRQFPFLASIQNQGRHFCGGALIHARFVMTAASCFQSQNPGVSTVVLGAYDLRRRERQSRQTFSISSMSENGYDPQQNLNDLMLLQLDREANLTSSVTILPLPLQNATVEAGTRCQVAGWGSQRSGGRLSRFPRFVNVTVTPEDQCRPNNVCTGVLTRRGGICNGDGGTPLVCEGLAHGVASFSLGPCGRGPDFFTRVALFRDWIDGVLNNPGP
PECAM-1 protein expression (PECAM-1 (CD31); 24 hr): waned | PECAM-1 protein expression (PECAM-1 (CD31); at 6 hr, maintained through 12 hr): Significant protein expression | Levels of proliferation relative to positive controls ([1]; 1000-2000 ng/ml, 48 hours): comparable to those obtained with the two positive controls, EGF and HGF | Proliferation of HCEC ([1]; 48 hours post treatment, versus culture medium alone): significant increase in proliferation over basal levels | Increase in cell numbers ([1]; 1000 ng/ml): approximately two | Increase in cell numbers ([1]; 2000 ng/ml): three
